B1: NRC3_wobSeed2_DR0_G17C_o1 (dsDNA)
DNA 1: GCCCTAGTTGGTCAAGCTCACACACGCTATAGGTACGCGATTGACAGCGTAGAATGAAGG
DNA 2: CCTTCATTCTACGCTGTCAATCGCGTACCTATAGCGTGTGTGAGCTTGACCAACTAGGGC
B2: NRC3_wobSeed36_DR1_G12T_o1 (dsDNA)
DNA 1: GCCCGACTGGGTCAAAGGTTACCATACTCAGTACGAGCGATTGACAGCGTAGAATGAAGG
DNA 2: CCTTCATTCTACGCTGTCAATCGCTCGTACTGAGTATGGTAACCTTTGACCCAGTCGGGC
B3: NRC3_random_hg19_476_o1 (dsDNA)
DNA 1: GCACAGCAAAGAGGCCAGCATGGCTAGAGCAGATCAGCGATTGACAGCGTAGAATGAAGG
DNA 2: CCTTCATTCTACGCTGTCAATCGCTGATCTGCTCTAGCCATGCTGGCCTCTTTGCTGTGC
B4: NRC3_random_hg19_386_o1 (dsDNA)
DNA 1: GCTCCCTTCCCTTCCCTTCCCTTCCCACAACCACTGGCGATTGACAGCGTAGAATGAAGG
DNA 2: CCTTCATTCTACGCTGTCAATCGCCAGTGGTTGTGGGAAGGGAAGGGAAGGGAAGGGAGC
B5: NRC3_random_hg19_398_o1 (dsDNA)
DNA 1: GCAAGAAACAACAAACTTAGTACCTAGAAACAAGAGGCGATTGACAGCGTAGAATGAAGG
DNA 2: CCTTCATTCTACGCTGTCAATCGCCTCTTGTTTCTAGGTACTAAGTTTGTTGTTTCTTGC
B6: NRC3_random_hg19_304_o1 (dsDNA)
DNA 1: GCGGCTGTTAGCGCTCATCTCTGTGTGCCTTCACAGGCGATTGACAGCGTAGAATGAAGG
DNA 2: CCTTCATTCTACGCTGTCAATCGCCTGTGAAGGCACACAGAGATGAGCGCTAACAGCCGC
B7: NRC3_wobSeed134_DR5_G26A_o1 (dsDNA)
DNA 1: GCGCTGCTAGGTCAACTGATGGTCAACTAAAGCTCGGCGATTGACAGCGTAGAATGAAGG
DNA 2: CCTTCATTCTACGCTGTCAATCGCCGAGCTTTAGTTGACCATCAGTTGACCTAGCAGCGC
B8: NRC3_wobSeed82_DR3_T27A_o1 (dsDNA)
DNA 1: GCATCGAAAGGTCGACGAGGTGAGTAAACACCGTTTGCGATTGACAGCGTAGAATGAAGG
DNA 2: CCTTCATTCTACGCTGTCAATCGCAAACGGTGTTTACTCACCTCGTCGACCTTTCGATGC
B9: NRC3_wobSeed28_DR1_T8G_o1 (dsDNA)
DNA 1: GCCCTACGGGGCCAAAGGTCATTGATTCCAATGCTCGCGATTGACAGCGTAGAATGAAGG
DNA 2: CCTTCATTCTACGCTGTCAATCGCGAGCATTGGAATCAATGACCTTTGGCCCCGTAGGGC
B10: NRC3_wobSeed42_DR1_G22A_o1 (dsDNA)
DNA 1: GCTATACAGGGTCAAAGGCCAAAGTACGAATGTCGAGCGATTGACAGCGTAGAATGAAGG
DNA 2: CCTTCATTCTACGCTGTCAATCGCTCGACATTCGTACTTTGGCCTTTGACCCTGTATAGC
B11: NRC3_random_hg19_254_o1 (dsDNA)
DNA 1: GCGCCTCTGGAATGTAAACTCCAGCCTGGCATGTATGCGATTGACAGCGTAGAATGAAGG
DNA 2: CCTTCATTCTACGCTGTCAATCGCATACATGCCAGGCTGGAGTTTACATTCCAGAGGCGC
B12: NRC3_wobSeed51_DR2_G23A_o1 (dsDNA)
DNA 1: GCCCTCGGAGGACAGAAGGTCAAAGCTGTCCGCTTTGCGATTGACAGCGTAGAATGAAGG
DNA 2: CCTTCATTCTACGCTGTCAATCGCAAAGCGGACAGCTTTGACCTTCTGTCCTCCGAGGGC
B13: NRC3_wobSeed37_DR1_G4A_o1 (dsDNA)
DNA 1: GCCATCCAAGGTCAAAGGTCAGTGAAGAGATGACGGGCGATTGACAGCGTAGAATGAAGG
DNA 2: CCTTCATTCTACGCTGTCAATCGCCCGTCATCTCTTCACTGACCTTTGACCTTGGATGGC
B14: NRC3_wobSeed37_DR1_T5G_o1 (dsDNA)
DNA 1: B13 DNA 1 with A4G, T5G
DNA 2: B13 DNA 2 with A56C, T57C
B15: NRC3_wobSeed34_DR1_G20C_o1 (dsDNA)
DNA 1: GCATCGAAAGGTCGAAGGTCAGTATACCCACCCGAAGCGATTGACAGCGTAGAATGAAGG
DNA 2: CCTTCATTCTACGCTGTCAATCGCTTCGGGTGGGTATACTGACCTTCGACCTTTCGATGC
B16: NRC3_random_hg19_84_o1 (dsDNA)
DNA 1: GCGTAAGACACCTTCCTAGGAAGAGAACAGCAGAATGCGATTGACAGCGTAGAATGAAGG
DNA 2: CCTTCATTCTACGCTGTCAATCGCATTCTGCTGTTCTCTTCCTAGGAAGGTGTCTTACGC
B17: NRC3_wobSeed130_DR5_C13G_o1 (dsDNA)
DNA 1: GCCTCGAAAGGTGGTGCTCAGGTGAGTATACCAAACGCGATTGACAGCGTAGAATGAAGG
DNA 2: CCTTCATTCTACGCTGTCAATCGCGTTTGGTATACTCACCTGAGCACCACCTTTCGAGGC
B18: NRC3_wobSeed53_DR2_A17G_o1 (dsDNA)
DNA 1: GCCCTTACGGGTCACGGGGTTATAGCACGACGAGCGGCGATTGACAGCGTAGAATGAAGG
DNA 2: CCTTCATTCTACGCTGTCAATCGCCGCTCGTCGTGCTATAACCCCGTGACCCGTAAGGGC
B19: NRC3_random_hg19_403_o1 (dsDNA)
DNA 1: GCATCTCCTGCCTCAGCCTCCTGAATAGGTGGGACTGCGATTGACAGCGTAGAATGAAGG
DNA 2: CCTTCATTCTACGCTGTCAATCGCAGTCCCACCTATTCAGGAGGCTGAGGCAGGAGATGC
B20: NRC3_wobSeed45_DR1_A20G_o1 (dsDNA)
DNA 1: GCTGTCAAAGTTCAAAGGTGACGTAAGTATCCACACGCGATTGACAGCGTAGAATGAAGG
DNA 2: CCTTCATTCTACGCTGTCAATCGCGTGTGGATACTTACGTCACCTTTGAACTTTGACAGC
B21: NRC3_random_hg19_243_o1 (dsDNA)
DNA 1: GCCAAATGCTAGCAGAAGGCAAGAAACAACTAAGATGCGATTGACAGCGTAGAATGAAGG
DNA 2: CCTTCATTCTACGCTGTCAATCGCATCTTAGTTGTTTCTTGCCTTCTGCTAGCATTTGGC
B22: NRC3_random_hg19_429_o1 (dsDNA)
DNA 1: GCTTAGTGAAGTGAAGGTTGCTTTCTACTCATTTGAGCGATTGACAGCGTAGAATGAAGG
DNA 2: CCTTCATTCTACGCTGTCAATCGCTCAAATGAGTAGAAAGCAACCTTCACTTCACTAAGC
B23: NRC3_wobSeed140_DR5_A9G_o1 (dsDNA)
DNA 1: GCAGAATGGGGTTATACGTAGATCAGGGAAGAAAGTGCGATTGACAGCGTAGAATGAAGG
DNA 2: CCTTCATTCTACGCTGTCAATCGCACTTTCTTCCCTGATCTACGTATAACCCCATTCTGC

Residue numbers refer to the chain shown, from its start.

Sequence of FXR:RXRa (Q96RI1 whole entry, chain 1 of 2): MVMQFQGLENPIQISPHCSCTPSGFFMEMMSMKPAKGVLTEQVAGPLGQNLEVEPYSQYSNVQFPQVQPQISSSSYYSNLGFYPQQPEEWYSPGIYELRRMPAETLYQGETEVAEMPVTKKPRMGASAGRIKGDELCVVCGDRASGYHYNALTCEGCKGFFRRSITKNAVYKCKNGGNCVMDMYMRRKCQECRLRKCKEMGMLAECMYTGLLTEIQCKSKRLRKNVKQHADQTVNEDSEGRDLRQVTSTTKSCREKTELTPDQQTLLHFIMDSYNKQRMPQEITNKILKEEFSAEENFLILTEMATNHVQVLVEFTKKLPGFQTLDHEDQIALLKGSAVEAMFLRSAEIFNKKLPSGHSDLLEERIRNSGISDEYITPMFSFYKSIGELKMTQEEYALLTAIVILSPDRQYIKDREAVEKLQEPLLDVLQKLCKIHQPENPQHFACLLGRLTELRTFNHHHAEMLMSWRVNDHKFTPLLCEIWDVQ
Sequence of FXR:RXRa (P19793 whole entry, chain 2 of 2): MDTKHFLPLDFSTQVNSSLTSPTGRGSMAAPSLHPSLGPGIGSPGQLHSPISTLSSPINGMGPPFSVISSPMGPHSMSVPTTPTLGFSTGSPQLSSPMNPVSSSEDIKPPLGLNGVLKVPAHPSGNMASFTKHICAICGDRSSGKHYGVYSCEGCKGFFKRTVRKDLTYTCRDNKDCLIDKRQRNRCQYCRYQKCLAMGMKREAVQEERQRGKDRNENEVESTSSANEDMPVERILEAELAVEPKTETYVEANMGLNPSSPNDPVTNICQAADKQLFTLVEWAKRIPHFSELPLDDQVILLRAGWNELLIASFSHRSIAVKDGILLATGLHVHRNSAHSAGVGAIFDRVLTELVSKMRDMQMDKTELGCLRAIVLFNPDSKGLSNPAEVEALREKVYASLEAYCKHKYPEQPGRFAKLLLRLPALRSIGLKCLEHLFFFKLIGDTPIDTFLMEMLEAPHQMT
Sequence of RXRa (P19793 whole entry): as the sequence (P19793 whole entry, chain 2 of 2) above
Sequence of RARg:RXRa (P13631 whole entry, chain 1 of 2): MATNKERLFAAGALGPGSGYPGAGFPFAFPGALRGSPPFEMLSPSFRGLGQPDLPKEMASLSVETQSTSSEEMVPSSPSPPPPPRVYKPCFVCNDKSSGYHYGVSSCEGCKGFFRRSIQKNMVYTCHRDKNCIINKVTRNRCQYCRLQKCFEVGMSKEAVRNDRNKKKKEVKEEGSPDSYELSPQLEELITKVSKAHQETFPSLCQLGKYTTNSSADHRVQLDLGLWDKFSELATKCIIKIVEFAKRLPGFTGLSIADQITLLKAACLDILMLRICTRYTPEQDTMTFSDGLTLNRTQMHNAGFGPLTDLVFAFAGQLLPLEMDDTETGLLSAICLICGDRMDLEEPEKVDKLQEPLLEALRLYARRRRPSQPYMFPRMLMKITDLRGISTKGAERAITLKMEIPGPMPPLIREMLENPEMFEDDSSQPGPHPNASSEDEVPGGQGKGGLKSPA
Sequence of RARg:RXRa (P19793 whole entry, chain 2 of 2): as the sequence (P19793 whole entry, chain 2 of 2) above

In one data set the target is RARa:RXRa (Homo sapiens, UniProt P10276;P19793 full;full). The data set can be described thus: no ligand; PBM; 270 nM : 90 nM RXRa; PBS pH 7.4, 2% milk, 0.02% Triton X-100, 1 mM DTT, BSA, 0.4 mg/ml salmon testes DNA. To be noted: tags: His kept;His cleaved; copies: 1;1; label: surface-attached array probe. In outline: (§1)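 The probes on custom Agilent 4×180K protein-binding microarrays were double-stranded, with 34-nt variable regions bearing direct-repeat seeds, single-nucleotide variants, half-site ablations and random human genomic background sequences. Incubation lasted 1 h with ligand-free nuclear receptor dimers in PBS pH 7.4, 2% milk, 0.02% Triton X-100, 1 mM DTT, 0.2 mg/mL BSA and 0.4 mg/ml salmon testes DNA. Antibodies against each partner (one per run) detected bound dimers, and fluorescence scans were regression-normalized. Binding z-scores take the random background probes as reference.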
Sequence of RARa:RXRa (P10276 whole entry, chain 1 of 2): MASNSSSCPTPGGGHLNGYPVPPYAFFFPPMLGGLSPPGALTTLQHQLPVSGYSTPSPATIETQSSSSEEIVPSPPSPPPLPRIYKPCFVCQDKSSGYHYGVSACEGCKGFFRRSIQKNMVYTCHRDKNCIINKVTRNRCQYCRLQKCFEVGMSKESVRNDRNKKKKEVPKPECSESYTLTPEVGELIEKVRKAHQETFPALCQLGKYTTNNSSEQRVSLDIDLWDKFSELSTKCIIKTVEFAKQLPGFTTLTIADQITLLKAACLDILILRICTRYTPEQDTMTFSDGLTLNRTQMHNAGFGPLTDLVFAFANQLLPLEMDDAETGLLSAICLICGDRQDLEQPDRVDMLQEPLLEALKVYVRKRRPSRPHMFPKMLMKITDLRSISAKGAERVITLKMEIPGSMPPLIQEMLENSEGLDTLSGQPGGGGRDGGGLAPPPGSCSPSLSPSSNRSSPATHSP
Sequence of RARa:RXRa (P19793 whole entry, chain 2 of 2): as the sequence (P19793 whole entry, chain 2 of 2) above
For the molecule B1, the binding signal was 0.43 PBM z-score against 500 random probes.
With B2, the binding signal was 7.7 PBM z-score against 500 random probes.
On to B3, for which the binding signal is -0.83 PBM z-score against 500 random probes.
Regarding B4, the binding signal is 0.49 PBM z-score against 500 random probes.
On to B5, for which the binding signal is 0.12 PBM z-score against 500 random probes.
For the molecule B6, the binding signal is -1 PBM z-score against 500 random probes.
Still for that read-out and setting: the result for B7 reads 3.74 PBM z-score against 500 random probes; that for B8, 3.55 PBM z-score against 500 random probes; that for B9, 7.56 PBM z-score against 500 random probes.
As to B10, the binding signal was 7.1 PBM z-score against 500 random probes.
The same measure, in the same setting: the result for B11 reads -0.5 PBM z-score against 500 random probes.
Take B12: the binding signal is 3.96 PBM z-score against 500 random probes.
B13: the binding signal was 9.27 PBM z-score against 500 random probes.
B14: the binding signal is 9.26 PBM z-score against 500 random probes.
As to B15, the binding signal is 7.04 PBM z-score against 500 random probes.
Turning to B16, the binding signal is -0.2 PBM z-score against 500 random probes.
On to B17, for which the binding signal is 0.34 PBM z-score against 500 random probes.
On to B18, for which the binding signal is 7.46 PBM z-score against 500 random probes.
For B19, the binding signal is -0.6 PBM z-score against 500 random probes.
As for B20, the binding signal is 7.89 PBM z-score against 500 random probes.
In the case of B21, the binding signal is -0.38 PBM z-score against 500 random probes.
As to B22, the binding signal was 0.08 PBM z-score against 500 random probes.
For the molecule B23, the binding signal was 3.3 PBM z-score against 500 random probes.

A further data set deals with RARg:RXRa (Homo sapiens, UniProt P13631;P19793 full;full). The description is as above. Conditions: tags: His kept;His cleaved; copies: 1;1; label: surface-attached array probe. The method, boiled down:
as §1
B4: the binding signal is -0.29 PBM z-score against 500 random probes.

In the next data set the target is PPARa:RXRa (Homo sapiens, UniProt Q07869;P19793 full;full). The description is as above. To be noted: tags: GST kept;His cleaved; copies: 1;1; label: surface-attached array probe. In outline: as §1
Sequence of PPARa:RXRa (Q07869 whole entry, chain 1 of 2): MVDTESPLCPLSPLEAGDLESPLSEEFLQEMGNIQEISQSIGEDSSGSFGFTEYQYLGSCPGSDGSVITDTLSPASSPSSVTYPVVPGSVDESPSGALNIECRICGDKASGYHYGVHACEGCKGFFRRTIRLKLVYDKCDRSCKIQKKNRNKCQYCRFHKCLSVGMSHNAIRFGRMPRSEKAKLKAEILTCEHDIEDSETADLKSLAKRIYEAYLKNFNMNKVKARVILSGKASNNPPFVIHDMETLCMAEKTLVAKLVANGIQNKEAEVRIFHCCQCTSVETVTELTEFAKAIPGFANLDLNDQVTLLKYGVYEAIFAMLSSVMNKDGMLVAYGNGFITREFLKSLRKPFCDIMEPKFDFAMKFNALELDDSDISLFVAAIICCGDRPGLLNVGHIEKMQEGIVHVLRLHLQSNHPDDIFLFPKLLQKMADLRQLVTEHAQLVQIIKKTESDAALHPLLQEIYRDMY
Sequence of PPARa:RXRa (P19793 whole entry, chain 2 of 2): as the sequence (P19793 whole entry, chain 2 of 2) above
Consider B2, for which the binding signal was 6.73 PBM z-score against 500 random probes.
As for B10, the binding signal is 6.61 PBM z-score against 500 random probes.
As to B13, the binding signal is 7.54 PBM z-score against 500 random probes.
Regarding B17, the binding signal was 0.16 PBM z-score against 500 random probes.

The target of the next data set is RARb:RXRa (Homo sapiens, UniProt P10826;P19793 full;full). Described as above. Conditions: tags: His kept;His cleaved; copies: 1;1; label: surface-attached array probe. In outline: as §1
Sequence of RARb:RXRa (P10826 whole entry, chain 1 of 2): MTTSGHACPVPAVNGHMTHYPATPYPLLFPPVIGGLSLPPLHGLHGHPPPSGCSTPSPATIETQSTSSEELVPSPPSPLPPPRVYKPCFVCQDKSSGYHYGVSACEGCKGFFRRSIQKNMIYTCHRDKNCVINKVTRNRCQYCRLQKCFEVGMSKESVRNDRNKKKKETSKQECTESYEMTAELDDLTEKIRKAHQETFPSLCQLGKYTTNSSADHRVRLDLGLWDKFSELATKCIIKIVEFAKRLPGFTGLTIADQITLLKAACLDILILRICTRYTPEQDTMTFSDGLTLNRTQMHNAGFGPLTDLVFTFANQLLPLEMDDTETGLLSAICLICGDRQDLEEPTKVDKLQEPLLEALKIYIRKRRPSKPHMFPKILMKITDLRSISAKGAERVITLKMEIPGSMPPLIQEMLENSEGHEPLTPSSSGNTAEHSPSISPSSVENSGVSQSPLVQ
Sequence of RARb:RXRa (P19793 whole entry, chain 2 of 2): as the sequence (P19793 whole entry, chain 2 of 2) above
With B5, the binding signal is -0.22 PBM z-score against 500 random probes.
For the molecule B6, the binding signal was -1.19 PBM z-score against 500 random probes.
Regarding B11, the binding signal is -0.34 PBM z-score against 500 random probes.
Still for that read-out and setting: the value for B13 was 6.38 PBM z-score against 500 random probes; that for B19 was -1.01 PBM z-score against 500 random probes.

The next data set concerns the target FXR:RXRa (Homo sapiens, UniProt Q96RI1;P19793 full;full). Described as above. To be noted: tags: His kept;His cleaved; copies: 1;1; label: surface-attached array probe. In outline:
as §1
Turning to B7, the binding signal was 4.04 PBM z-score against 500 random probes.
Regarding B8, the binding signal is 4.45 PBM z-score against 500 random probes.
The same measure, in the same setting: the result for B10 reads 7.75 PBM z-score against 500 random probes; that for B12, 3.12 PBM z-score against 500 random probes.
Still for that read-out and setting: the result for B16 reads -0.49 PBM z-score against 500 random probes.
Consider B20, for which the binding signal is 7.78 PBM z-score against 500 random probes.
As for B21, the binding signal is -0.92 PBM z-score against 500 random probes.
For B23, the binding signal is 4.21 PBM z-score against 500 random probes.

A further data set addresses RXRa (Homo sapiens, UniProt P19793). The data set can be described thus: no ligand; PBM; 180 nM; PBS pH 7.4, 2% milk, 0.02% Triton X-100, 1 mM DTT, BSA, 0.4 mg/ml salmon testes DNA. To be noted: tags: His cleaved; chain copies: 2; label: surface-attached array probe.
In the case of B1, the binding signal is 0.35 PBM z-score against 500 random probes.
B2: the binding signal is 7.96 PBM z-score against 500 random probes.
Turning to B3, the binding signal is -0.29 PBM z-score against 500 random probes.
Still for that read-out and setting: the result for B4 reads -0.1 PBM z-score against 500 random probes.
With B9, the binding signal is 7.78 PBM z-score against 500 random probes.
On to B10, for which the binding signal is 8.11 PBM z-score against 500 random probes.
In the case of B14, the binding signal is 10.7 PBM z-score against 500 random probes.
For B15, the binding signal was 7.85 PBM z-score against 500 random probes.
Same read-out and setting: the value for B16 was -0.13 PBM z-score against 500 random probes; that for B17 was -0.07 PBM z-score against 500 random probes; that for B18 was 8.24 PBM z-score against 500 random probes.
Regarding B20, the binding signal is 8.27 PBM z-score against 500 random probes.
As for B22, the binding signal was -0.28 PBM z-score against 500 random probes.

Source of the values: publication PMC6555819, “Comprehensive study of nuclear receptor DNA binding provides a revised framework for understanding receptor specificity”.
